To fix the notation:
B1: TPR 5TU (parent)
chain: GGAUCUUCUCGAUCUAACAAAAAAGACAAAUCUGCCACAAAGCUUGAGAGCAUCUUCGGAUGCAGAGGCGGCAGCCUUCGGUGGCGCGAUAGCGCCAACGUUCUCAACUAUGACACGCAAAACGCGUGCUCCGUUGAAUGGAGUUUAUCAUG

Here are results for 83 variants from the RNAGym collection of RNA variant scans (doi:10.1073/pnas.2313332121).

Variants at the floor of the assay were thinned out. Bounds are passed on as bounds.

This data set covers variants of B1. In words: polymerase ribozyme fitness, log enrichment relative to wild type (log ratio); higher = more active; in vitro selection for triplet polymerase activity. An outline of the steps: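 Frozen incubation at −7 °C formed the core of a single, triplicate in vitro selection round applied to PCR-built, transcribed mutant libraries of each subunit of a heterodimeric triplet polymerase ribozyme. Extended constructs were gel-excised, captured with streptavidin beads and amplified by RT-PCR, and input and output libraries were Illumina-sequenced with a filter of ≥10 input reads and ≥1 read per output. Fitness is the logarithm of genotype enrichment relative to wild-type enrichment, with inverse-variance-weighted replicate averaging, and the logarithm is base 2.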
With G67C C93A G133A U151G, the “polymerase ribozyme fitness (log ratio)” value was at most -4.2.
For the variant A64U C93U A138G, the “polymerase ribozyme fitness (log ratio)” value was at most -4.2.
On to C69A C85U, for which the “polymerase ribozyme fitness (log ratio)” value is -1.65.
Take G67U U146A: the “polymerase ribozyme fitness (log ratio)” value was -2.89.
On to G71C G83A G117C C129A, for which the “polymerase ribozyme fitness (log ratio)” value is at most -4.2.
Turning to G68U G71U G86U A97U, the “polymerase ribozyme fitness (log ratio)” value is at most -4.2.
As for G70A G81U, the “polymerase ribozyme fitness (log ratio)” value was -3.25.
Take A66G C87A: the “polymerase ribozyme fitness (log ratio)” value was at most -4.2.
For C69U A97G G141A, the “polymerase ribozyme fitness (log ratio)” value was -0.875.
On to G70C G94A, for which the “polymerase ribozyme fitness (log ratio)” value is -3.61.
On to C69U A122U, for which the “polymerase ribozyme fitness (log ratio)” value was -1.27.
For G71A G84U U101C A142C the value was at most -4.2; for C69A G84U A137G, -3.58.
For G71C C87G G128A the value was at most -4.2; for C69G A91G, -3.88; for C69A U78G U90G G128A C131U, at most -4.2.
For G68A G74A U90C, the “polymerase ribozyme fitness (log ratio)” value was at most -4.2.
For A66G G88U A119G U139G, the “polymerase ribozyme fitness (log ratio)” value is at most -4.2.
C69G G74U A89U A98U: the “polymerase ribozyme fitness (log ratio)” value was -2.01.
For A64U G84U, the “polymerase ribozyme fitness (log ratio)” value was at most -4.2.
Regarding G68A G81U C96A, the “polymerase ribozyme fitness (log ratio)” value is -3.57.
Regarding G71C C87U, the “polymerase ribozyme fitness (log ratio)” value was -3.34.
Turning to G70A C93A C123U, the “polymerase ribozyme fitness (log ratio)” value was at most -4.2.
As to G70C, the “polymerase ribozyme fitness (log ratio)” value was -2.92.
Next, G70A: -2.75; G70U: -1.81; G68A C85U C105A G124A G133U: at most -4.2.
In the case of G70A C87A C99A, the “polymerase ribozyme fitness (log ratio)” value is at most -4.2.
Next, A64G G68U U144A: at most -4.2; G67U C96G: -3.31.
Next, A64U C103G U134G G141C: at most -4.2; C69U A115U C123U: -1.62; G65A U139C G141C: -3.69.
Next, G68U C85U: at most -4.2; G67C G68C C118U A120G: at most -4.2; A66G A97U: at most -4.2.
For the variant G71A C93U, the “polymerase ribozyme fitness (log ratio)” value was -2.94.
Consider A64G G84U, for which the “polymerase ribozyme fitness (log ratio)” value is -4.16.
Turning to G70A C75A C85G G140C, the “polymerase ribozyme fitness (log ratio)” value was at most -4.2.
Regarding G65U G84U G88A, the “polymerase ribozyme fitness (log ratio)” value is at most -4.2.
On to C69A U102C, for which the “polymerase ribozyme fitness (log ratio)” value was at most -4.2.
For G65A G124U the value was -1.24; for C69G G94A U104G, -1.19.
For C69A A89U the value was -1.41; for C69A A97G A98U U104A G124A, -2.14.
In the case of A66G C114U, the “polymerase ribozyme fitness (log ratio)” value was -4.17.
Next, C69U C87A U90A G117U: at most -4.2; G71A A91G C93U: at most -4.2; G68A C96A C99U A110G U145C: at most -4.2.
With A66G A89U C95G C116A C123A, the “polymerase ribozyme fitness (log ratio)” value is at most -4.2.
In the case of G71U C93U, the “polymerase ribozyme fitness (log ratio)” value was -3.57.
As for G65C C149G, the “polymerase ribozyme fitness (log ratio)” value is at most -4.2.
For C72A A147C the value was at most -4.2.
For G65C G92A A137C G141C the value was at most -4.2.
For C69G A73G, the “polymerase ribozyme fitness (log ratio)” value was -2.59.
As to G67U G74C A107U C123G, the “polymerase ribozyme fitness (log ratio)” value is at most -4.2.
As to A66G U104A U134G G136C, the “polymerase ribozyme fitness (log ratio)” value is at most -4.2.
As to C72G U127C G143U U144G, the “polymerase ribozyme fitness (log ratio)” value is at most -4.2.
As for G68U C76U, the “polymerase ribozyme fitness (log ratio)” value was at most -4.2.
For G68A A147U, the “polymerase ribozyme fitness (log ratio)” value was -4.05.
For the variant G67U G70U G81A G83U A97U, the “polymerase ribozyme fitness (log ratio)” value is at most -4.2.
For the variant G70A U144C, the “polymerase ribozyme fitness (log ratio)” value is -3.66.
On to A64G C87A C105A U144G, for which the “polymerase ribozyme fitness (log ratio)” value is at most -4.2.
In the case of G65A G126A, the “polymerase ribozyme fitness (log ratio)” value is -0.138.
On to G70A C105A C123A, for which the “polymerase ribozyme fitness (log ratio)” value was at most -4.2.
A64U C79U C87A A137G: the “polymerase ribozyme fitness (log ratio)” value is at most -4.2.
As to C72G C96U, the “polymerase ribozyme fitness (log ratio)” value is -4.02.
Next, G71U C85U: -1.67; G65A C96U: -1.03; A66U C85U U102C A107G G143C: at most -4.2.
As to G71A G140U U148C, the “polymerase ribozyme fitness (log ratio)” value is at most -4.2.
For C72A C103A, the “polymerase ribozyme fitness (log ratio)” value is at most -4.2.
For C69A U90C the value was at most -4.2; for G65A, -1.04; for G65U, -3.1.
On to G65C, for which the “polymerase ribozyme fitness (log ratio)” value is at most -4.2.
With C69A U90A A147C, the “polymerase ribozyme fitness (log ratio)” value is at most -4.2.
Next, G68C G74C C87U C118A U135A C149G: at most -4.2.
For G70C A98U the value was -2.78; for G67A G83A, at most -4.2.
Next, G68A C99A: at most -4.2.
Regarding G71A C132U, the “polymerase ribozyme fitness (log ratio)” value was -3.5.
Consider G70A U77G U78G C87A A97C A122U, for which the “polymerase ribozyme fitness (log ratio)” value was at most -4.2.
